Assay results published in patent US20020177126A1 (published 2002).
Where “and” joins values, the source holds several entries; their conditions need not be identical. Equal values may be shown once.

Key:
[1] = molecular target: F protein (RSV F glycoprotein immobilised on the BIAcore sensor chip) (respiratory syncytial virus (RSV), UniProt P03420 26-524); test: BIAcore, immobilised F protein
Bac-F = Bac-F (UniProt P03420 26-524); test: BIAcore, Mab vs Bac-F, 1:1
[2] = molecular target: T1, F protein of wild type RSV A/Long (respiratory syncytial virus, strain …, UniProt P12568 26-574); test: cell-based or functional assay
T1 sequence (P12568 26-574): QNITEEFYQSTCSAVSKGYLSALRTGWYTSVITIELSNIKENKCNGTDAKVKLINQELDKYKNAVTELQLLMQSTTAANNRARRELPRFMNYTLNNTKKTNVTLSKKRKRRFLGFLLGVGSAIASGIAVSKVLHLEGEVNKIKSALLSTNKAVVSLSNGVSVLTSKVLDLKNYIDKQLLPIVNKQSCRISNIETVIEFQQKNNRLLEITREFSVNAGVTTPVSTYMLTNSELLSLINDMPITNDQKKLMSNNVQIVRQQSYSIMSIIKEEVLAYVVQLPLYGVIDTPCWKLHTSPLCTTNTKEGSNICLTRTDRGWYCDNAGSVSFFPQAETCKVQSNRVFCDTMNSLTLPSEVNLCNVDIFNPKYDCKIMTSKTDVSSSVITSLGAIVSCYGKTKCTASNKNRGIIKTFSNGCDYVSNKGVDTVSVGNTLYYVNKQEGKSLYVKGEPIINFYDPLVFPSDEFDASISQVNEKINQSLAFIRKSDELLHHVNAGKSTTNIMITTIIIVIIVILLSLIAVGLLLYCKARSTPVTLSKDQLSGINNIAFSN

[3] = molecular target: T1, F protein of wild type RSV A/Long; test: cell-based or functional assay; remark: listed apart in the source

Bac-F, sequence (P03420 26-524): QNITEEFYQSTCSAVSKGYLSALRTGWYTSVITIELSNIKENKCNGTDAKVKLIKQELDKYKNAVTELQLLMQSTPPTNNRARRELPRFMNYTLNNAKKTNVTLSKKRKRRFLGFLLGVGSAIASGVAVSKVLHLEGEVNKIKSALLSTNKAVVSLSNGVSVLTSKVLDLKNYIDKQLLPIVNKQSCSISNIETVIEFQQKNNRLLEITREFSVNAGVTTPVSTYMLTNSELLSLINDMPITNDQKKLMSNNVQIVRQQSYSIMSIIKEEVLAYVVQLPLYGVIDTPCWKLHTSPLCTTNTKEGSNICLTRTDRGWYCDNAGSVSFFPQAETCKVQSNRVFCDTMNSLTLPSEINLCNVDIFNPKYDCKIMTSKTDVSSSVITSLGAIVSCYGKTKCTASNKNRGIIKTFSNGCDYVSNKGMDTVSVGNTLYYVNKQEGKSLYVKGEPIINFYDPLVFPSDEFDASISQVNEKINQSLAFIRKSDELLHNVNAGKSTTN
F protein (RSV F glycoprotein immobilised on the BIAcore sensor chip), sequence (P03420 26-524): as above

Binder | koff [1] | kon [1] | Kd (Bac-F) [nM] | koff (Bac-F) [s⁻¹] | kon (Bac-F) [M⁻¹ s⁻¹] | number in parentheses after KD (fold vs SYNAGIS) (Bac-F) [fold] | EC50, RSV (Long) microneutralization [2] [nM] | Fold Difference (Control IC50) [3] [fold] | Fold Difference (Curve IC50) [3] [fold] | Mean IC50 (Control), RSV microneutralization [3] [µg/mL] | Mean IC50 (Curve), RSV microneutralization [3] [µg/mL]
1X-493L1FR (Fab) (Fab, V domains shown) VH: QVTLRESGPALVKPTQTLTLTCTFSGFSLSTSGMSVGWIRQPPGKALEWLADIWWDDKKDYNPSLKSRLTISKDTSKNQVVLKVTNMDPADTATYYCARSMITNWYFDVWGAGTTVTVSS VL: DIQMTQSPSTLSASVGDRVTITCSASSSVGYMHWYQQKPGKAPKLLIYDTSKLASGVPSRFSGSGSGTEFTLTISSLQPDDFATYYCFQGSGYPFTFGGGTKLEIK | 0.00065 s⁻¹ | 185000 M⁻¹ s⁻¹ | – | – | – | – | – | – | – | – | –
A1e9 (monoclonal antibody) (antibody, V domains shown) VH: QVTLRESGPALVKPTQTLTLTCTFSGFSLSTAGMSVGWIRQPPGKALEWLADIWWDGKKHYNPSLKDRLTISKDTSKNQVVLKVTNMDPADTATYYCARDMIFNWYFDVWGQGTTVTVSS VL: DIQMTQSPSTLSASVGDRVTITCSLSSRVGYMHWYQQKPGKAPKLLIYDTFKLSSGVPSRFSGSGSGTEFTLTISSLQPDDFATYYCFQGSGYPFTFGGGTKVEIK | – | – | 0.33 | 0.000143 | 433000 | 12 | – | – | – | – | –
P12f2 (Fab) (Fab, V domains shown, also called Pf12; P1212) VH: QVTLRESGPALVKPTQTLTLTCTFSGFSLSTPGMSVGWIRQPPGKALEWLADIWWDDKKHYNPSLKDRLTISKDTSKNQVVLKVTNMDPADTATYYCARDMIFNFYFDVWGAGTTVTVSS VL: DIQMTQSPSTLSASVGDRVTITCSLSSRVGYMHWYQQKPGKAPKLLIYDTFYLSSGVPSRFSGSGSGTEFTLTISSLQPDDFATYYCFQGSGYPFTFGGGTKVEIK | 0.000282 s⁻¹ | 663000 M⁻¹ s⁻¹ | – | – | – | – | 0.65 | 16 | 11 | 0.0326 | 0.0407
A13a11 (Fab) (Fab, V domains shown) VH: QVTLRESGPALVKPTQTLTLTCTFSGFSLSTAGMSVGWIRQPPGKALEWLADIWWDDKKHYNPSLKDRLTISKDTSKNQVVLKVTNMDPADTATYYCARDMIFNWYFDVWGAGTTVTVSS VL: DIQMTQSPSTLSASVGDRVTITCSPSSRVGYMHWYQQKPGKAPKLLIYDTYRHSSGVPSRFSGSGSGTEFTLTISSLQPDDFATYYCFQGSGYPFTFGGGTKLEIK | 0.00025 s⁻¹ | 735000 M⁻¹ s⁻¹ | – | – | – | – | – | – | – | – | –
P11d4 (monoclonal antibody) (antibody, V domains shown) VH: QVTLRESGPALVKPTQTLTLTCTFSGFSLSTPGMSVGWIRQPPGKALEWLADIWWDGKKHYNPSLKDRLTISKDTSKNQVVLKVTNMDPADTATYYCARDMIFNWYFDVWGQGTTVTVSS VL: DIQMTQSPSTLSASVGDRVTITCSPSSRVGYMHWYQQKPGKAPKLLIYDTMRLASGVPSRFSGSGSGTEFTLTISSLQPDDFATYYCFQGSGYPFTFGGGTKVEIK | – | – | 0.62 | 0.000289 | 466000 | 6 | – | 19 | 21 | 0.0289 | 0.0217
Y10H6 (Fab) (Fab, V domains shown) VH: QVTLRESGPALVKPTQTLTLTCTFSGFSLSTAGMSVGWIRQPPGKALEWLADIWWDDKKDYNPSLKSRLTISKDTSKNQVVLKVTNMDPADTATYYCARDMIFNWYFDVWGAGTTVTVSS VL: DIQMTQSPSTLSASVGDRVTITCSASSSVGYMHWYQQKPGKAPKLLIYDTRYLSSGVPSRFSGSGSGTEFTLTISSLQPDDFATYYCFQGSGYPFTFGGGTKLEIK | 0.000462 s⁻¹ | 757000 M⁻¹ s⁻¹ | – | – | – | – | – | – | – | – | –
DG (Fab) (Fab, V domains shown) VH: QVTLRESGPALVKPTQTLTLTCTFSGFSLSTAGMSVGWIRQPPGKALEWLADIWWDDKKDYNPSLKSRLTISKDTSKNQVVLKVTNMDPADTATYYCARDMITNFYFDVWGAGTTVTVSS VL: DIQMTQSPSTLSASVGDRVTITCSASSSVGYMHWYQQKPGKAPKLLIYDTFKLASGVPSRFSGSGSGTEFTLTISSLQPDDFATYYCFQGSGYPFTFGGGTKLEIK | 0.000167 s⁻¹ and 0.000444 s⁻¹ | – | – | – | – | – | – | – | – | – | –
6H8 (Fab) (Fab, V domains shown) VH: QVTLRESGPALVKPTQTLTLTCTFSGFSLSTAGMSVGWIRQPPGKALEWLADIWWDDKKDYNPSLKSRLTISKDTSKNQVVLKVTNMDPADTATYYCARDMITNFYFDVWGAGTTVTVSS VL: DIQMTQSPSTLSASVGDRVTITCSASSSVGYMHWYQQKPGKAPKLLIYDTFKLTSGVPSRFSGSGSGTEFTLTISSLQPDDFATYYCFQGSGYPFTFGGGTKLEIK | 0.000178 s⁻¹ and 0.000473 s⁻¹ | 314000 M⁻¹ s⁻¹ and 444000 M⁻¹ s⁻¹ | – | – | – | – | – | – | – | – | –
P12f4 (monoclonal antibody) (antibody, V domains shown) VH: QVTLRESGPALVKPTQTLTLTCTFSGFSLSTPGMSVGWIRQPPGKALEWLADIWWDGKKHYNPSLKDRLTISKDTSKNQVVLKVTNMDPADTATYYCARDMIFNFYFDVWGQGTTVTVSS VL: DIQMTQSPSTLSASVGDRVTITCSLSSRVGYMHWYQQKPGKAPKLLIYDTRGLPSGVPSRFSGSGSGTEFTLTISSLQPDDFATYYCFQGSGYPFTFGGGTKVEIK | – | – | 0.11 | 5.55e-05 | 495000 | 35 | – | 23 | 19 | 0.0235 | 0.0242
A12a6 (monoclonal antibody) (antibody, V domains shown) VH: QVTLRESGPALVKPTQTLTLTCTFSGFSLSTAGMSVGWIRQPPGKALEWLADIWWDGKKDYNPSLKDRLTISKDTSKNQVVLKVTNMDPADTATYYCARDMIFNFYFDVWGQGTTVTVSS VL: DIQMTQSPSTLSASVGDRVTITCSASSRVGYMHWYQQKPGKAPKLLIYDTFKLSSGVPSRFSGSGSGTEFTLTISSLQPDDFATYYCFQGSGYPFTFGGGTKVEIK | – | – | 0.04 | 1.65e-05 | 460000 | 98 | – | 15 | 13 | 0.0354 | 0.0357
M3H9 (Fab) (Fab, V domains shown) VH: QVTLRESGPALVKPTQTLTLTCTFSGFSLSTAGMSVGWIRQPPGKALEWLADIWWDDKKDYNPSLKSRLTISKDTSKNQVVLKVTNMDPADTATYYCARDMIFNWYFDVWGAGTTVTVSS VL: DIQMTQSPSTLSASVGDRVTITCSASSSVGYMHWYQQKPGKAPKLLIYDTYKQTSGVPSRFSGSGSGTEFTLTISSLQPDDFATYYCFQGSGYPFTFGGGTKLEIK | 0.000338 s⁻¹ | 605000 M⁻¹ s⁻¹ | – | – | – | – | – | – | – | – | –
L1-7E5 (Fab) (Fab, V domains shown) VH: QVTLRESGPALVKPTQTLTLTCTFSGFSLSTAGMSVGWIRQPPGKALEWLADIWWDDKKDYNPSLKSRLTISKDTSKNQVVLKVTNMDPADTATYYCARDMITNFYFDVWGAGTTVTVSS VL: DIQMTQSPSTLSASVGDRVTITCSASSRVGYMHWYQQKPGKAPKLLIYDTFKLASGVPSRFSGSGSGTEFTLTISSLQPDDFATYYCFQGSGYPFTFGGGTKLEIK | 0.000192 s⁻¹ and 0.000331 s⁻¹ and 0.000229 s⁻¹ | – | – | – | – | – | – | – | – | – | –
A8c7 (monoclonal antibody) (antibody, V domains shown) VH: QVTLRESGPALVKPTQTLTLTCTFSGFSLSTAGMSVGWIRQPPGKALEWLADIWWDDKKSYNPSLKDRLTISKDTSKNQVVLKVTNMDPADTATYYCARDMIFNWYFDVWGQGTTVTVSS VL: DIQMTQSPSTLSASVGDRVTITCSPSSRVGYMHWYQQKPGKAPKLLIYDTRYQSSGVPSRFSGSGSGTEFTLTISSLQPDDFATYYCFQGSGYPFTFGGGTKLEIK | – | – | 0.21 | 8.75e-05 | 417000 | 19 | – | – | – | – | –
H3-3F4 (Fab) (Fab, V domains shown, also called 113-3F4) VH: QVTLRESGPALVKPTQTLTLTCTFSGFSLSTAGMSVGWIRQPPGKALEWLADIWWDDKKDYNPSLKSRLTISKDTSKNQVVLKVTNMDPADTATYYCARDMIFNWYFDVWGAGTTVTVSS VL: DIQMTQSPSTLSASVGDRVTITCSASSSVGYMHWYQQKPGKAPKLLIYDTFKLASGVPSRFSGSGSGTEFTLTISSLQPDDFATYYCFQGSGYPFTFGGGTKLEIK | 0.000445 s⁻¹ and 0.000402 s⁻¹ | – | – | – | – | – | – | – | – | – | –
A13c4 (monoclonal antibody) (antibody, V domains shown) VH: QVTLRESGPALVKPTQTLTLTCTFSGFSLSTAGMSVGWIRQPPGKALEWLADIWWDGKKSYNPSLKDRLTISKDTSKNQVVLKVTNMDPADTATYYCARDMIFNFYFDVWGQGTTVTVSS VL: DIQMTQSPSTLSASVGDRVTITCSLSSRVGYMHWYQQKPGKAPKLLIYDTMYQSSGVPSRFSGSGSGTEFTLTISSLQPDDFATYYCFQGSGYPFTFGGGTKVEIK | – | – | 0.13 | 3.96e-05 | 300000 | 30 | – | 14 | 12 | 0.0375 | 0.0376
AFFF (monoclonal antibody) (antibody, V domains shown) VH: QVTLRESGPALVKPTQTLTLTCTFSGFSLSTAGMSVGWIRQPPGKALEWLADIWWDDKKDYNPSLKSRLTISKDTSKNQVVLKVTNMDPADTATYYCARSMITNFYFDVWGAGTTVTVSS VL: DIQMTQSPSTLSASVGDRVTITCSASSSVGYMHWYQQKPGKAPKLLIYDTFKLASGVPSRFSGSGSGTEFTLTISSLQPDDFATYYCFQFSGYPFTFGGGTKLEIK | 0.000274 s⁻¹ and 0.000266 s⁻¹ and 0.000206 s⁻¹ | 108000 M⁻¹ s⁻¹ and 96000 M⁻¹ s⁻¹ and 124000 M⁻¹ s⁻¹ | – | – | – | – | – | – | – | – | –
P12f2 (monoclonal antibody) (antibody, V domains shown, also called Pf12; P1212) VH: QVTLRESGPALVKPTQTLTLTCTFSGFSLSTPGMSVGWIRQPPGKALEWLADIWWDDKKHYNPSLKDRLTISKDTSKNQVVLKVTNMDPADTATYYCARDMIFNFYFDVWGAGTTVTVSS VL: DIQMTQSPSTLSASVGDRVTITCSLSSRVGYMHWYQQKPGKAPKLLIYDTFYLSSGVPSRFSGSGSGTEFTLTISSLQPDDFATYYCFQGSGYPFTFGGGTKVEIK | – | – | 0.31 | 0.000128 | 407000 | 13 | – | 24 | 20 | 0.0223 | 0.0231
